Test results from the RNAGym collection of RNA variant scans (doi:10.7554/elife.80360).

B1: Twister Ribozyme (parent)
chain: AACACUGCCAAUGCCGGUCCCAAGCCCGGAUAAAAGUGGAGGGGGCGG

Variants of: B1
Assay: self-cleavage, relative activity (ratio to wild type); higher = more cleavage; co-transcriptional

Going from G45U G48C to G45U G48U, the self-cleavage falls from 1.48 to 0.757.

Compared with C46A, C46A G48A is lower in self-cleavage: 0.927 for the first, 0.837 for the second.

Going from C46A G48U to C46G, the self-cleavage rises from 0.889 to 0.951.

Compared with C46G G47A, C46G G47U is lower in self-cleavage: 0.818 for the first, 0.728 for the second.

Going from C46U to C46U G47A, the self-cleavage falls from 0.958 to 0.874.

Compared with C46U G47C, C46U G48A is lower in self-cleavage: 1.6 for the first, 0.885 for the second.

Compared with C46U G48U, G47A is lower in self-cleavage: 1.01 for the first, 0.952 for the second.

Compared with G47A G48A, G47A G48C is lower in self-cleavage: 1.31 for the first, 0.942 for the second.

Going from G47C to G47C G48A, the self-cleavage falls from 0.706 to 0.666.

First: G47U
Second: G47U G48A
The self-cleavage of the first is higher: 0.965 for the first, 0.819 for the second.

First: G47U G48U
Second: G48A
The self-cleavage of the first is higher: 1.57 for the first, 0.986 for the second.

First: G48C
Second: G48U
The self-cleavage of the first is higher: 1.15 for the first, 1.06 for the second.
